From paper PMC7571800

How the values were obtained:
[1] = biological target: SUZ12(N) 3D;RBBP4;MTF2 full-length (Homo sapiens;Homo sapiens;Homo sapiens?, UniProt Q15022;Q09028;Q9Y483 76-545;1-425;1-593, K195D;R196D;K197D||); test: EMSA
[2] = biological target: SUZ12(N);RBBP4;MTF2 full-length (Homo sapiens;Homo sapiens;Homo sapiens?, UniProt Q15022;Q09028;Q9Y483 76-545;1-425;1-593, ||); test: EMSA
Sequence of SUZ12(N);RBBP4;MTF2 full-length (Q15022 76-545, chain 1 of 3): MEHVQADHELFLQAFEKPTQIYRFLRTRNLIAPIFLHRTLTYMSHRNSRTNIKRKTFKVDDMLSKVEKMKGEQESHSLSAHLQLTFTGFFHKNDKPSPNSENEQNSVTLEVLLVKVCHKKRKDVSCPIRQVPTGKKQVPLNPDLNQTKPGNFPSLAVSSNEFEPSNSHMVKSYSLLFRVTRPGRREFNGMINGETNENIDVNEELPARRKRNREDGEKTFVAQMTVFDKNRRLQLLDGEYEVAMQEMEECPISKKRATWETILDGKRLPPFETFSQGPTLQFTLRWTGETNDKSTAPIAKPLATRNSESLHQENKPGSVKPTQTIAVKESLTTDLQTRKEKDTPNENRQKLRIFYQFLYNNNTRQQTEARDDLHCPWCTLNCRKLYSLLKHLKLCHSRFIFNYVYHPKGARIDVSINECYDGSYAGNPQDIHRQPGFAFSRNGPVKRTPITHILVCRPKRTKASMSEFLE
Sequence of SUZ12(N);RBBP4;MTF2 full-length (Q09028 whole entry, chain 2 of 3): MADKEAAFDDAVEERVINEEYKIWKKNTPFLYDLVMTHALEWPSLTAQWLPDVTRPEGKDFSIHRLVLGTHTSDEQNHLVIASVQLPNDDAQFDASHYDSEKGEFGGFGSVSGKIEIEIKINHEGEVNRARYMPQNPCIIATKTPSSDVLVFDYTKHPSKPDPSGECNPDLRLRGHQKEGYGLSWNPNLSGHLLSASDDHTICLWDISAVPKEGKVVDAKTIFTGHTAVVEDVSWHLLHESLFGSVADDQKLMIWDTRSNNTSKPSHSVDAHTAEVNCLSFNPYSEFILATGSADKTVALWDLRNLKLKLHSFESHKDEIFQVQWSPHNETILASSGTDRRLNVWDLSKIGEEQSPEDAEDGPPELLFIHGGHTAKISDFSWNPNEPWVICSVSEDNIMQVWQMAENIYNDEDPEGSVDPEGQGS
Sequence of SUZ12(N);RBBP4;MTF2 full-length (Q9Y483 whole entry, chain 3 of 3): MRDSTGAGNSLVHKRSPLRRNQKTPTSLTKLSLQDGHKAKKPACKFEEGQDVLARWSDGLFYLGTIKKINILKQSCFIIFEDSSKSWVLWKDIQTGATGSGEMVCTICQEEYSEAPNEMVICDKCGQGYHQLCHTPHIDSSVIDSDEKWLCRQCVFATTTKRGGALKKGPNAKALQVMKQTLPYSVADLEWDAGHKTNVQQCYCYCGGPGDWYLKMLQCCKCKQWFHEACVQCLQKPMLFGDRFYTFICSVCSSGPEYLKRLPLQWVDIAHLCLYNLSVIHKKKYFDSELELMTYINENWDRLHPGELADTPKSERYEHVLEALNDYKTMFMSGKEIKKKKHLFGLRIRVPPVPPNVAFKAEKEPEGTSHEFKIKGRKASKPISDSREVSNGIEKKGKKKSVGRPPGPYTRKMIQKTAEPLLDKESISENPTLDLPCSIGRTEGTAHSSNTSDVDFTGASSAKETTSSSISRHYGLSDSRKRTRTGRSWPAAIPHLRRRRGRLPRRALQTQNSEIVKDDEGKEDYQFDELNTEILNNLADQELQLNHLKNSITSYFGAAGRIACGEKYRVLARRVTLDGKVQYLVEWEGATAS

Sequence of SUZ12(N) 3D;RBBP4;MTF2 full-length (Q15022 76-545 K195D/R196D/K197D, chain 1 of 3): as the sequence (Q15022 76-545, chain 1 of 3) above, with K120D, R121D, K122D counted along it
Sequence of SUZ12(N) 3D;RBBP4;MTF2 full-length (Q09028 whole entry, chain 2 of 3): as the sequence (Q09028 whole entry, chain 2 of 3) above
Sequence of SUZ12(N) 3D;RBBP4;MTF2 full-length (Q9Y483 whole entry, chain 3 of 3): as the sequence (Q9Y483 whole entry, chain 3 of 3) above

B1: CGI-LHX6 100 bp (dsDNA)
DNA 1: GTGGTGGTGGTGGTTGAGAAAATAAAACCCAGAGCGCTAGGAGCATCCGCCCGCTCGACGCGCGCCGGGAAATTGAAGCGGGGATATTGACACCGATTCA
DNA 2: TGAATCGGTGTCAATATCCCCGCTTCAATTTCCCGGCGCGCGTCGAGCGGGCGGATGCTCCTAGCGCTCTGGGTTTTATTTTCTCAACCACCACCACCAC
- binding signal [1]: > 25 fold weaker than WT
- Kd [2]: 17.6 nM
